From patent US10716826B2, “Compositions for overcoming anti-cancer drug-resistance or compositions for anti-cancer activity employing CAGE-derived peptides” (L-Base Co., Ltd., priority 2015, dated 2020)
Entries after “also recorded” stand apart in the source; their conditions may differ.

How the values were obtained:
[1] = molecular target: T1, CAGE-GSK3β inter-binding (Homo sapiens, UniProt Q86TM3); experiment: Western blot and immunoprecipitation in taxol-resistance melanoma cell strain; type: cell-based; design: endogenous in cells; host or cells: Malme3M^R-Taxol (A2); Malme3M^R, SNU387^R (printed SNU3SM^R/SNU38^R), AGS^R (A3); conditions: Malme3M^R-Taxol; for CAGE-GSK3β inter-binding: immunoprecipitation
T1 sequence (Q86TM3 whole entry): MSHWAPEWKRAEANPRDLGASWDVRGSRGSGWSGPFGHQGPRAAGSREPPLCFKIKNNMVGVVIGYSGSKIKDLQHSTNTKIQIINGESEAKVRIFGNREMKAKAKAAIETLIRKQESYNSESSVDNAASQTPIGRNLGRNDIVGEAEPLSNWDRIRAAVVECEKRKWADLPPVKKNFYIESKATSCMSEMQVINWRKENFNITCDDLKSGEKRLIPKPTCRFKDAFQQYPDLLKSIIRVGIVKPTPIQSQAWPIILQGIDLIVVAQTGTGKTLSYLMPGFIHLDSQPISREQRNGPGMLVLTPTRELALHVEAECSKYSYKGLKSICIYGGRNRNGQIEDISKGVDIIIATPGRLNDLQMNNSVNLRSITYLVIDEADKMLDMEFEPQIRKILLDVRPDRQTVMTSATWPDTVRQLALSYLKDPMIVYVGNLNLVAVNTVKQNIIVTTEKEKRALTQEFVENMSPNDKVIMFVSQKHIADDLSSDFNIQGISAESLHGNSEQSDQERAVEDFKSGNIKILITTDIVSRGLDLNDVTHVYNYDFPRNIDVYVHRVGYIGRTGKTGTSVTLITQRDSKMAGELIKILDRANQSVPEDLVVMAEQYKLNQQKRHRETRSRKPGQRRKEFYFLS
Method: (§1) To confirm an affection of CAGE-derived oligopeptide to the interbinding and GSK3β Ser9 phosphorylation of a CAGE, a GTGKT (Sequence No.1) peptide and a specific-residue deleted and mutated peptide based on the GTGKT peptide were prepared and, after collecting proteins by a known method after transfection into respective cell stains, the Western blot and the immunoprecipitation were preformed to inspect an anticancer drug-resistance induction mechanism of the CAGE. GTGKT includes ATP binding sites of CAGE (the right panel of FIG. 3A).
To examine residues necessary for anticancer activity of a GTGKT peptide, after preparing a peptide for which the 273′rd Thr residue is deleted (GTGK) or substituted (GTGKA, sequence No. 2) with Ala in CAFE, and preparing a peptide for which the 272′nd […] residue is substituted (GTGRT) with Arg, the same manner was performed.

[2] = tested on: Malme3M^R, SNU38M^R cell strains; experiment: apoptosis against an anticancer drug (FAK and PARP cleavage, Western blot); type: cell-based; conditions: melanoma and liver cancer cell strains
[3] = molecular target: T1, CAGE-GSK3β inter-binding; experiment: Western blot and immunoprecipitation in celastrol-resistance cell strains; type: cell-based; design: endogenous in cells; host or cells: Malme3M^R-Taxol (A2); Malme3M^R, SNU387^R (printed SNU3SM^R/SNU38^R), AGS^R (A3); conditions: for expression level of Cyclin D1 / inter-binding between CAGE and GSK3β proteins: celastrol-resistance cell strains (melanoma, liver cancer, gastric cancer)
Method: as §1

[4] = tested on: Malme3M^R, SNU38M^R, AGS^R cell strains; experiment: MTT assay of anticancer drug resistance; type: cell-based; conditions: celastrol-resistance cell strains
Method: To confirm anticancer activity of a GTGKT-based oligopeptide, the MIT assay and the western blot according to a known method was performed using an immunodeficiency mouse. Then, it could be seen how the GKCKT-based oligopeptide affected tumor generation.
After transfecting a GTGKT peptide into melanoma, liver-cancer, and gastric-cancer cell strains (Malme3M^R, SNU38M^R, AGS^R) by concentration, anticancer drug resistance was inspected through the MTT assay.

[5] = molecular target: T2, CAGE (Homo sapiens, UniProt Q86TM3); experiment: binding of peptide to CAGE in anticancer drug-resistance cell strains
T2 construct: endogenous in cells; host or cells: anticancer drug-resistance cell strains (Malme3M^R, SNU387^R)
T2 sequence (Q86TM3 whole entry): as above

[6] = molecular target: T1, CAGE-GSK3β inter-binding; experiment: Western blot and immunoprecipitation of tumor tissue after the mouse experiment; type: in vivo; design: from tissue; host or cells: xenograft tumour tissue from Malme3M^R / SNU387^R cells in immunodeficiency mouse
Text: After finishing the experiment, a protein was collected from the tumor tissue through a known method, and then activity of protein expression and an inter-binding state were conformed through the Western blot and the immunoprecipitation.

[7] = tested on: tumor from Malme3MR, SNU38R cell strains; experiment: tumor generation in immunodeficiency mouse, peptide injected into tail vein; type: in vivo; conditions: 5 times in total every 3 days for 2 weeks
Method: If a tumor grew up to a size enough to be measured, a digital gauge was used to a size of the tumor in a uniform interval and the tumor size was calculated by a known equation (the widest length [the shortest length]^2×0.5). After inducing a tumor in the same manner, taxol was injected into a vein of the mouse's tail for inspection to tumor generation and anticancer drug resistance.
To inspect an affection of GKGKT peptide to tumor generation, after injecting high-CAGE melanoma and liver-cancer cell strains (Malme3MR, SNU38R) into the side abdomen of an immunodeficiency mouse by a known method and then inducing a tumor, the GTGKT peptide was injected into a vein of the mouse's tail 5 times in total every 3 days for 2 weeks and a size variation of the tumor was examined. As a result, it could be seen from FIG. 8A that the GTGKT peptide reduced a size of the tumor due to the cancer cell strains.

[8] = molecular target: reassociated CAGE protein (Homo sapiens, UniProt Q86TM3); experiment: in vitro kinase assay: phosphorylation of GSK3β Ser9 peptide by reassociated CAGE protein; type: biochemical; conditions: RTTSFAE peptide as substrate
Chain of reassociated CAGE protein (Q86TM3 whole entry): as above
Method: A GSK3β-described peptide RTTSFAE including GSK3β Ser9 residues was prepared for a temperament (the left panel of FIG. 3A) and phosphorylation of the GSK3β Ser9 residues by a reassociated CAGE protein was confirmed through an in vitro kinase assay by using the RTTSFAE peptide as the temperament (the left panel of FIG. 4B).

protein accumulation / expression level of Cyclin D1 ([1]; Western blot) | CAGE-GSK3β inter-binding [1] | inter-binding between CAGE and GSK3β proteins [3] | phosphorylation of GSK3β Ser9 residues ([1]; Western blot) | binding to CAGE [5] | phosphorylation state of GSK3β Ser9 ([3]; Malme3M^R, SNU38^R treated with peptide) | expression of MDR1 in tumor tissue ([6]; Western blot) | phosphorylation state of GSK3β Ser9 in tumor tissue ([6]; Western blot) | protein expression of Cyclin D1 in tumor tissue ([6]; Western blot) | inter-binding between CAGE and GSK3β proteins in tumor tissue ([6]; immunoprecipitation) | phosphorylation of GSK3β Ser9 residues due to the reassociated CAGE protein [8] | phosphorylation of GSK3β Ser9 residues due to the reassociated CAGE protein ([8]; listed as GTCKT) | Substance | apoptosis against an anticancer drug [2] | expression level of Cyclin D1 [3] | anticancer drug resistance [4] | size of the tumor [7]
control an expression level of Cyclin D1 | suppressed | suppress | – | – | – | – | – | – | – | – | – | GTGKA (CAGE-derived peptide) [GTGKT peptide in which the 273rd Thr residue is substituted with Ala] | induced cell apoptosis | control an expression level of Cyclin D1 | – | –
suppress | hindered | suppress; also recorded: hindered | suppress | bound specifically | suppressed dephosphorylation | reduced | dephosphorylation | decrease | suppressed | suppressed in phosphorylation | suppressed | GTGKT (CAGE-derived peptide) | induced apoptosis | control an expression level of Cyclin D1; also recorded: suppressed | suppressed | reduced
